In patent US20250145679A1 (WUXI BIOLOGICS IRELAND, published 2025):

Tests used:
[1] = target: T1, human lymphoma (HH) cell line (human); assay: binding to HH cells, dose-dependent (FIG. 5); receptor on the cells not named
T1 construct: Cells, not a defined protein

[2] = target: T2, IL-2/15Rβ (CD122) ECD (human, UniProt P14784 27-239); assay: SPR, Biacore 8K, complex captured on anti-human Fc CM5 chip, receptor ECD-His injected
T2 construct: The SPR text names the analyte only as 'W327151-hPro2.ECD.His'; also called Receptor β; IL-15Rβ
T2 sequence: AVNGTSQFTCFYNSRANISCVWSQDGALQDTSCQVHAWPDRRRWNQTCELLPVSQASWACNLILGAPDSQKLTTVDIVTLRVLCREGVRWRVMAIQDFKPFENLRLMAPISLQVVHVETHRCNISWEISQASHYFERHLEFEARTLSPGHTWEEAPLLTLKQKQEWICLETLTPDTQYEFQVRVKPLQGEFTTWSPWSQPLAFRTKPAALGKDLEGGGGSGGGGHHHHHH
Procedure: IL-15 variants binding affinity to its receptor were detected by SPR using Biacore 8K. Each variant was captured on anti-human Fc immobilized CM5 sensor chip (cytiva). W327151-hPro2.ECD.His at different concentrations were injected over the sensor chip at a flow rate of 30 uL/min for an association phase of 120 s, followed by 120 s dissociation. The chip was then regenerated by 10 mM Glycine-HCl pH 1.5 after each binding cycle.

EC50 [1]: 91.9 nM | Kd [2]: 7.9 nM | koff [2]: 0.00483 s⁻¹ | kon [2]: 612000 M⁻¹ s⁻¹
B1: W327151-TXU1.P1-V0013.uIgG4V322 (Fc fusion)
chain 1: NWVNVISDLKKIEDLIQSMHIDATLYTESDVHPSCKVTAMKCFLLELQVISLESGDASIHDTVENLIILANNSLSSNGNVTESGCKECEELEEKNIKEFLQSFVHIVQMFESKYGPPCPPCPAPEAAGGPSVFLFPPKPKDTLMISRTPEVTCVVVDVSQEDPEVQFNWYVDGVEVHNAKTKPREEQFNSTYRVVSVLTVLHQDWLNGKEYKCKVSNKGLPSSIEKTISKAKGQPREPQVYTLPPCQEEMTKNQVSLWCLVKGFYPSDIAVEWESNGQPENNYKTTPPVLDSDGSFFLYSRLTVDKSRWQEGNVFSCSVMHEALHNHYTQKSLSLSLGK
chain 2: ITCPPPMSVEHADIWVKSYSLYSRERYICNSGFKRKAGTSSLTECVLNKATNVAHWTTPSLKCIRESKYGPPCPPCPAPEAAGGPSVFLFPPKPKDTLMISRTPEVTCVVVDVSQEDPEVQFNWYVDGVEVHNAKTKPREEQFNSTYRVVSVLTVLHQDWLNGKEYKCKVSNKGLPSSIEKTISKAKGQPREPQVCTLPPSQEEMTKNQVSLSCAVKGFYPSDIAVEWESNGQPENNYKTTPPVLDSDGSFFLVSRLTVDKSRWQEGNVFSCSVMHEALHNHYTQKSLSLSLGK
notes: Heterodimeric IL-15/IL-15Ralpha-Fc polypeptide complex; IgG4 Fc with S228P and F234A/L235A, knob-into-hole
